Experimental data: doi:10.1101/2024.02.21.581378 (bioRxiv, 2024)

How the values were obtained:
[1] = target: macaque TMPRSS2 N469Y on transfected 293T cells (macaque)
[2] = target: T1, TMPRSS2^S441A (human TMPRSS2 residues 107-492, zymogen, uncleaved) (human, UniProt O15393 107-492, S441A); test: crystal structure
[3] = target: cleaved soluble TMPRSS2^S441A (TMPRSS2^S441A-Cl) (human, UniProt O15393 107-255; O15393 256-492, S441A); test: BLI
[4] = target: T1, TMPRSS2^S441A (human TMPRSS2 residues …); test: BLI

T1 sequence (O15393 107-492 S441A): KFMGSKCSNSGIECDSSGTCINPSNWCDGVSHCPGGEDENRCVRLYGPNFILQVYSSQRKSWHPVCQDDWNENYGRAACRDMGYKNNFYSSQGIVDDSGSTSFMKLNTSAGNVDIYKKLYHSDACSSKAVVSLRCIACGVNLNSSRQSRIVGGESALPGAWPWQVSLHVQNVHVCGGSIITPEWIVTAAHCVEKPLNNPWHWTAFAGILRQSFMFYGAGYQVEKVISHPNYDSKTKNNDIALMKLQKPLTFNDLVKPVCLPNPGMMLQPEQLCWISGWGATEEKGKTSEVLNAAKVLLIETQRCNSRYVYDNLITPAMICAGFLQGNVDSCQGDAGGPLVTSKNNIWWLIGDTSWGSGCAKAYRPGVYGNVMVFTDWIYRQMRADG
Sequence of cleaved soluble TMPRSS2^S441A (TMPRSS2^S441A-Cl) (O15393 107-255, chain 1 of 2): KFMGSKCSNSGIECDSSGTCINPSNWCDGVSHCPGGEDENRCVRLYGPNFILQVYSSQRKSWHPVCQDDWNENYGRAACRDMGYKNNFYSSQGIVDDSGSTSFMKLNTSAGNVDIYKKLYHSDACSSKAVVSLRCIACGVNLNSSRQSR
Sequence of cleaved soluble TMPRSS2^S441A (TMPRSS2^S441A-Cl) (O15393 256-492 S441A, chain 2 of 2): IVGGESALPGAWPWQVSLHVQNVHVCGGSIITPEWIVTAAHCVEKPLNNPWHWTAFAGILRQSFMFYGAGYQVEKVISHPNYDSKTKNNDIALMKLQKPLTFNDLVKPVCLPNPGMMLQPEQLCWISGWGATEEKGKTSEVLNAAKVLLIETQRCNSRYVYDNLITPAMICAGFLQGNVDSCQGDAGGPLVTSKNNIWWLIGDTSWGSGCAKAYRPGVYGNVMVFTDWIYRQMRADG
Sequence of soluble biotinylated HKU1B spike (Q0ZME7 13-1351): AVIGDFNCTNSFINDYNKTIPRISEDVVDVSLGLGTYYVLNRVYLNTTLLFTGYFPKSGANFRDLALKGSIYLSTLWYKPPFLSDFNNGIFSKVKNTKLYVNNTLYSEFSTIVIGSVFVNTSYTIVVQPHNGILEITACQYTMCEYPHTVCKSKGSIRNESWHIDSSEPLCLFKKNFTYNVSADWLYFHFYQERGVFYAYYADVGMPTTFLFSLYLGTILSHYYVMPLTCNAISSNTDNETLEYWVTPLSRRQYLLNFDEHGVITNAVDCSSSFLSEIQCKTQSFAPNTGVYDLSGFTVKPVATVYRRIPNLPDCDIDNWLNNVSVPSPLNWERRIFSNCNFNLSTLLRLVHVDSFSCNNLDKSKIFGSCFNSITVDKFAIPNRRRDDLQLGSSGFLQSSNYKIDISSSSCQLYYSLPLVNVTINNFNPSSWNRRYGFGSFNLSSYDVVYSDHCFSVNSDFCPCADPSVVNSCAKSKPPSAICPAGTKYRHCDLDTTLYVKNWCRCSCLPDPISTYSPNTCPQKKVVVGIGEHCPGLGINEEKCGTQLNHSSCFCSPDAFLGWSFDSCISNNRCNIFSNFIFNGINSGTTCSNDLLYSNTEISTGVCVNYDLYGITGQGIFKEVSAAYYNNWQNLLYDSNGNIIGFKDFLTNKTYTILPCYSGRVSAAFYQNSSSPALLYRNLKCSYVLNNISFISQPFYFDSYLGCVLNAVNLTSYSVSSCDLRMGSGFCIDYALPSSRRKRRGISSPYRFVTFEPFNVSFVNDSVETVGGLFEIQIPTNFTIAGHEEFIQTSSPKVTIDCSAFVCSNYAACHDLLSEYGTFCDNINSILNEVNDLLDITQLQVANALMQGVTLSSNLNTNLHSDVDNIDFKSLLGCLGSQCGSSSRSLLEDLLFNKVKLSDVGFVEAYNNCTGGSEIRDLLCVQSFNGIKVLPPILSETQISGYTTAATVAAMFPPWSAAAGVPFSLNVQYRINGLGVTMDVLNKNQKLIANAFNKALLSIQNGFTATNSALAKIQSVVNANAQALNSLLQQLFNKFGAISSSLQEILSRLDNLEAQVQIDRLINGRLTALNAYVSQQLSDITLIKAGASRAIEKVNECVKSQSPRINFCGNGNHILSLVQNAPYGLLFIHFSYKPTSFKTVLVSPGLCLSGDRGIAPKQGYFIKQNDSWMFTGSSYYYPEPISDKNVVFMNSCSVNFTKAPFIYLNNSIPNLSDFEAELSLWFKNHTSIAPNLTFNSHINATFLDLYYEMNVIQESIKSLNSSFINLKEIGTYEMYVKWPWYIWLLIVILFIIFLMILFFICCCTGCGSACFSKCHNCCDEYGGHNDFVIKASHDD

| Molecule | binding result [3] | binding result [4] | other results |
| --- | --- | --- | --- |
| soluble biotinylated HKU1B spike (from UniProt Q0ZME7) (natural protein) |  |  | entry of HKU1B pseudoviruses, fold increase against wild-type macaque TMPRSS2 [1]: 10 fold |
| HKU1B RBD and subdomain-1 (RBD-SD1, residues 307-675 of the spike protein) (domain or fragment) SGFTVKPVATVYRRIPNLPDCDIDNWLNNVSVPSPLNWERRIFSNCNFNLSTLLRLVHVDSFSCNNLDKSKIFGSCFNSITVDKFAIPNRRRDDLQLGSSGFLQSSNYKIDISSSSCQLYYSLPLVNVTINNFNPSSWNRRYGFGSFNLSSYDVVYSDHCFSVNSDFCPCADPSVVNSCAKSKPPSAICPAGTKYRHCDLDTTLYVKNWCRCSCLPDPISTYSPNTCPQKKVVVGIGEHCPGLGINEEKCGTQLNHSSCFCSPDAFLGWSFDSCISNNRCNIFSNFIFNGINSGTTCSNDLLYSNTEISTGVCVNYDLYGITGQGIFKEVSAAYYNNWQNLLYDSNGNIIGFKDFLTNKTYTILPCYSG |  |  | binding result [2]: binds |
| HKU1B RBD (residues 330-614 of the spike protein), wild type (domain or fragment) DNWLNNVSVPSPLNWERRIFSNCNFNLSTLLRLVHVDSFSCNNLDKSKIFGSCFNSITVDKFAIPNRRRDDLQLGSSGFLQSSNYKIDISSSSCQLYYSLPLVNVTINNFNPSSWNRRYGFGSFNLSSYDVVYSDHCFSVNSDFCPCADPSVVNSCAKSKPPSAICPAGTKYRHCDLDTTLYVKNWCRCSCLPDPISTYSPNTCPQKKVVVGIGEHCPGLGINEEKCGTQLNHSSCFCSPDAFLGWSFDSCISNNRCNIFSNFIFNGINSGTTCSNDLLYSNTEI |  |  | Kd [3]: 30 nM |
| HKU1B RBD (residues 330-614) K487A (domain or fragment) DNWLNNVSVPSPLNWERRIFSNCNFNLSTLLRLVHVDSFSCNNLDKSKIFGSCFNSITVDKFAIPNRRRDDLQLGSSGFLQSSNYKIDISSSSCQLYYSLPLVNVTINNFNPSSWNRRYGFGSFNLSSYDVVYSDHCFSVNSDFCPCADPSVVNSCAASKPPSAICPAGTKYRHCDLDTTLYVKNWCRCSCLPDPISTYSPNTCPQKKVVVGIGEHCPGLGINEEKCGTQLNHSSCFCSPDAFLGWSFDSCISNNRCNIFSNFIFNGINSGTTCSNDLLYSNTEI | binds | binds |  |
| HKU1B RBD (residues 330-614) L510R (domain or fragment) DNWLNNVSVPSPLNWERRIFSNCNFNLSTLLRLVHVDSFSCNNLDKSKIFGSCFNSITVDKFAIPNRRRDDLQLGSSGFLQSSNYKIDISSSSCQLYYSLPLVNVTINNFNPSSWNRRYGFGSFNLSSYDVVYSDHCFSVNSDFCPCADPSVVNSCAKSKPPSAICPAGTKYRHCDLDTTRYVKNWCRCSCLPDPISTYSPNTCPQKKVVVGIGEHCPGLGINEEKCGTQLNHSSCFCSPDAFLGWSFDSCISNNRCNIFSNFIFNGINSGTTCSNDLLYSNTEI | binds | binds |  |
| HKU1B RBD (residues 330-614) Y528A (domain or fragment) DNWLNNVSVPSPLNWERRIFSNCNFNLSTLLRLVHVDSFSCNNLDKSKIFGSCFNSITVDKFAIPNRRRDDLQLGSSGFLQSSNYKIDISSSSCQLYYSLPLVNVTINNFNPSSWNRRYGFGSFNLSSYDVVYSDHCFSVNSDFCPCADPSVVNSCAKSKPPSAICPAGTKYRHCDLDTTLYVKNWCRCSCLPDPISTASPNTCPQKKVVVGIGEHCPGLGINEEKCGTQLNHSSCFCSPDAFLGWSFDSCISNNRCNIFSNFIFNGINSGTTCSNDLLYSNTEI | binds | binds |  |
| HKU1B RBD (residues 330-614) S529A (domain or fragment) DNWLNNVSVPSPLNWERRIFSNCNFNLSTLLRLVHVDSFSCNNLDKSKIFGSCFNSITVDKFAIPNRRRDDLQLGSSGFLQSSNYKIDISSSSCQLYYSLPLVNVTINNFNPSSWNRRYGFGSFNLSSYDVVYSDHCFSVNSDFCPCADPSVVNSCAKSKPPSAICPAGTKYRHCDLDTTLYVKNWCRCSCLPDPISTYAPNTCPQKKVVVGIGEHCPGLGINEEKCGTQLNHSSCFCSPDAFLGWSFDSCISNNRCNIFSNFIFNGINSGTTCSNDLLYSNTEI | binds |  |  |
